Measurements reported in US11708423B2, “Chimeric engulfment receptor molecules and methods of use” (CERO THERAPEUTICS, INC., priority 2017, dated 2023).

Columns and labels:
[1] = system: H1975 lung adenocarcinoma cells; experiment: LDH assay, H1975 cells, 48 hours co-culture with 1 μM Osimeritinib; format: cell-based; details: E:T 1:1, 48 hours, CD4+ T cells
Procedure, shortened: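 H1975 EGFR-mutant cells were co-cultured 48 h with CER-expressing or mock-transduced CD4+ T cells at 1:1 effector:target, plus 1 μM osimertinib. After T cells were washed away, viable H1975 cells were quantified by colorimetric LDH assay in triplicate, expressed as % of control.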

[2] = system: HCC827 lung adenocarcinoma cells; experiment: MTT viability and bright field microscopy of HCC827 cells with CER T cells and Osimeritinib; format: cell-based; details: Osimeritinib 1 nM, 48 hours, CD4+ T cells
Description: CD4+ T cells were transduced with lentiviral vectors encoding various CERs (CER21, CER108, CER104, CER129, CER27, CER120, CER122, CER123, CER124, or CER126). Mock transduced (vector only) CD4+ T cells were used as control. CER21 comprises a Tim4 binding domain, Tim4 transmembrane domain, and an engulfment signaling domain comprising a primary engulfment signaling domain comprising a TLR8 signaling domain. CER21 has a polypeptide sequence as set forth in SEQ ID NO:88. CER108 has a polypeptide sequence as set forth in SEQ ID NO:137 and comprises a Tim4 binding domain, Tim4 transmembrane domain, and an engulfment signaling domain comprising a primary engulfment signaling domain comprising a DAP12 signaling domain and a secondary engulfment signaling domain comprising a TLR8 signaling domain. CER104 has a polypeptide sequence as set forth in SEQ ID NO:133 and comprises a Tim4 binding domain, Tim4 transmembrane domain, and an engulfment signaling domain comprising a primary engulfment signaling domain comprising a TLR8 signaling domain and a secondary engulfment signaling domain comprising a DAP12 signaling domain. CER129 has a polypeptide sequence as set forth in SEQ ID NO:177 and comprises a Tim4 binding domain, Tim4 transmembrane domain, and an engulfment signaling domain comprising a primary engulfment signaling domain comprising a TLR8 signaling domain and a secondary engulfment signaling domain comprising a TRAF2 signaling domain. CER27 comprises a Tim4 binding domain, Tim4 transmembrane domain, and an engulfment signaling domain comprising a primary engulfment signaling domain comprising a TLR2 signaling domain. CER27 has a polypeptide sequence as set forth in SEQ ID NO:93. […] T cells were washed away, and the number of viable HCC827 cells was quantified using a calorimetric MTT assay. […]

B1: CER122: Tim4 binding and transmembrane domains, TLR2 primary and DAP12 secondary signaling domains; SEQ ID NO:149 (protein)
chain: MSKGLLLLWLVTELWWLYLTPAASEDTIIGFLGQPVTLPCHYLSWSQSRNSMCWGKGSCPNSKCNAELLRTDGTRIISRKSTKYTLLGKVQFGEVSLTISNTNRGDSGVYCCRIEVPGWFNDVKKNVRLELRRATTTKKPTTTTRPTTTPYVTTTTPELLPTTVMTTSVLPTTTPPQTLATTAFSTAVTTCPSTTPGSFSQETTKGSAFTTESETLPASNHSQRSMMTISTDIAVLRPTGSNPGILPSTSQLTTQKTTLTTSESLQKTTKSHQINSRQTILIIACCVGFVLMVLLFLAFLHRFHGLWYMKMMWAWLQAKRKPRKAPSRNICYDAFVSYSERDAYWVENLMVQELENFNPPFKLCLHKRDFIPGKWIIDNIIDSIEKSHKTVFVLSENFVKSEWCKYELDFSHFRLFDENNDAAILILLEPIEKKAIPQRFCKLRKIMNTKTYLEWPMDEAQREGFWVNLRAAIKSYFLGRLVPRGRGAAEAATRKQRITETESPYQELQGQRSDVYSDLNTQRPYYK
modifications: CER122 protein
- killing of H1975 cells (LDH) [1]: synergistic killing of H1975 lung adenocarcinoma cells upon EGFR inhibition
- bright field microscopy of HCC827 co-culture [2]: cluster of dead HCC827 EGFR^+ cells surrounded by phagocytic CER122^+ T cells
